From US20100184613A1 come the findings set out here.

Where no end group is shown, it is not given here.

The target in test [1] is antibody C1, specific for the CRP-derived 8-mer PET sequence YEVQGEVF
Description: peptide competition ELISA.

The target is the same in test [2]. Description: peptide competition ELISA; soluble peptide competes with coated target peptide for C1. In general terms: ELISA stands for enzyme-linked immunosorbent assay.
The target of test [3] is antibody P1, specific for the PSA-derived 8-mer PET sequence EPAELTDA
Description: peptide competition ELISA.

Test [4] has the same target. As to the kind of experiment: peptide competition ELISA; soluble peptide competes with coated target peptide for P1.

B1: nearest-neighbor 8-mer peptide VEVNGEVF (peptide)
peptide: VEVNGEVF
Turning to B1, the fold higher concentration without effect, against the antigen PET YEVQGEVF in test [1] was over 1000 fold. This molecule also displayed an IC50 in test [2] of over 1000 µM.

B2: nearest-neighbor 8-mer peptide YEVLGEEF (peptide)
peptide: YEVLGEEF
B2 gave a fold higher concentration without effect, against the antigen PET YEVQGEVF in test [1] of over 1000 fold. For the same molecule, in test [2], the half-inhibitory concentration (IC50) is over 1000 µM.

B3: nearest-neighbor 8-mer peptide EPVELTSA (peptide)
peptide: EPVELTSA
B3: the fold higher concentration without effect, against the antigen PET EPAELTDA in test [3] turned out to be 25000 fold. This molecule displayed an IC50 in test [4] of over 1000 µM.

B4: CRP-derived 8-mer PET peptide YEVQGEVF (peptide)
peptide: YEVQGEVF
In turn, B4 displayed an IC50 in test [2] of 1 µM.

B5: nearest-neighbor 8-mer peptide DPTQLTDA (peptide)
peptide: DPTQLTDA
Take B5: in test [3], the fold higher concentration without effect, against the antigen PET EPAELTDA was 25000 fold. The same molecule yielded an IC50 in test [4] of over 1000 µM.

B6: PSA-derived 8-mer PET peptide EPAELTDA (peptide)
peptide: EPAELTDA
modifications: not fully specified
As for B6, in test [4], the IC50 stood at 0.04 µM.

As usually defined, the IC50 is the concentration that gives 50% inhibition. The low end stands for higher potency, the high end for lower potency.
